Results on 2 molecules are retold here after publication PMC7913696.

In assay [1] the target is T1, PrimPol WT (human) (UniProt Q96LW4).
T1 sequence: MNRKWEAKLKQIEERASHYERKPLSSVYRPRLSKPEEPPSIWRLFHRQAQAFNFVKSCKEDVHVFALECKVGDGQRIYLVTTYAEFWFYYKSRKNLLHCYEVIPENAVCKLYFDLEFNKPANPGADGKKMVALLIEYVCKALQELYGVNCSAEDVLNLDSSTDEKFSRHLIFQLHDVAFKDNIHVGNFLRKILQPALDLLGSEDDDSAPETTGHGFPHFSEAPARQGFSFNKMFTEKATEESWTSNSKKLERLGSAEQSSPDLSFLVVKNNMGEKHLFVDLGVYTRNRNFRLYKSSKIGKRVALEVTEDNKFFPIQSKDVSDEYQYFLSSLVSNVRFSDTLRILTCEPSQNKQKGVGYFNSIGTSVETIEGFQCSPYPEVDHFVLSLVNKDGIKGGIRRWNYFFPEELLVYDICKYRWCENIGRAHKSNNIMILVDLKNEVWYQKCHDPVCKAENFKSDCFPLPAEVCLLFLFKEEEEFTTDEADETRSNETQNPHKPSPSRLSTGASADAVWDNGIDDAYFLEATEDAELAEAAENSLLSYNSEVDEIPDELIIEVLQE

The target of assay [2] is T1, PrimPol WT (human). The source holds these as a separate data set.

In the case of “full-length (FL) human PolDIP2 tagged with C-terminal hexa-histidine (from UniProt Q9Y2S7 52-368) (natural protein)”, the primer extension by 150 nM PrimPol on a 25/70-mer primer/template with increasing FL-PolDIP2 (up to 500 nM): percent of DNA substrate extended >3 nt in the assay with PrimPol WT (human) [1] came out at 46%. Besides, the filter binding of [α-32P]dCTP (1 μM dCTP, 300 nM primer/template, 600 nM PrimPol and 600 nM FL-PolDIP2, Ca2+, 37°C), against PrimPol alone with PrimPol WT (human) [2] worked out at 3 fold.

B1: T3-PolDIP2 (AA 217–368), C-terminal fragment with the ApaG-like domain (domain or fragment)
chain: LRAWQEKNHPWLELSDVHRETTENIRVTVIPFYMGMREAQNSHVYWWRYCIRLENLDSDVVQLRERHWRIFSLSGTLETVRGRGVVGREPVLSKEQPAFQYSSHVSLQASSGHMWGTFRFERPDGSHFDVRIPPFSLESNKDEKTPPSGLHW
In the assay with PrimPol WT (human) [1], B1 registered a primer extension by 150 nM PrimPol on a 25/70-mer primer/template with increasing T3-PolDIP2 (from 150 nM): percent of DNA substrate extended >3 nt of 32%.
